Experiment [1] has as its target T1, human TNFR2 (Homo sapiens, UniProt P20333 23-461).
T1 construct: also called hTNFR2; TNFRSF1B
T1 sequence: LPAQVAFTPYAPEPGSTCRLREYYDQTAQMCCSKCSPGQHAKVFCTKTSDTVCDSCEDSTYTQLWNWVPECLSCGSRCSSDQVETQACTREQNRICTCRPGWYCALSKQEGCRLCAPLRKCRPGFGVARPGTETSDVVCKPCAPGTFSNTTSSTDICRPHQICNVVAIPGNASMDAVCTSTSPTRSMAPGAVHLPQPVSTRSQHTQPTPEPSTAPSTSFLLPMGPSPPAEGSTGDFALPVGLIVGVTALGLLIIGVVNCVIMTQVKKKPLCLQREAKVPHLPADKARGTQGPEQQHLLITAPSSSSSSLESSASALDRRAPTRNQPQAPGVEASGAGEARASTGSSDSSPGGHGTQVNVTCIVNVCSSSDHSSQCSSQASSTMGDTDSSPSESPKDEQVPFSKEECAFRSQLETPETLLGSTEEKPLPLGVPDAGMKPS
The experiment can be described thus: flow cytometry on HEK293T cells stably overexpressing human TNFR2, Alexa Fluor 647 secondary antibody.
Protocol: (§1) HEK293T cells stably overexpressing human TNFR2 or CHO-K1 stably overexpressing human TNFR1 were aliquoted in FACS buffer and incubated with serial dilutions of TNFR2 antibody. […] Following an incubation, the reactions were subsequently analyzed by flow cytometry. […] The concentration-response was fitted to a four-parameter logistic non-linear regression model in the GraphPad Prism software to obtain the EC₅₀ values.

In a further experiment the target is T2, cynomolgus TNFR2 (Macaca fascicularis, UniProt P20333 23-461 (human entry)).
T2 construct: Stably overexpressed on HEK293T cells; also called cynoTNFR2
T2 chain: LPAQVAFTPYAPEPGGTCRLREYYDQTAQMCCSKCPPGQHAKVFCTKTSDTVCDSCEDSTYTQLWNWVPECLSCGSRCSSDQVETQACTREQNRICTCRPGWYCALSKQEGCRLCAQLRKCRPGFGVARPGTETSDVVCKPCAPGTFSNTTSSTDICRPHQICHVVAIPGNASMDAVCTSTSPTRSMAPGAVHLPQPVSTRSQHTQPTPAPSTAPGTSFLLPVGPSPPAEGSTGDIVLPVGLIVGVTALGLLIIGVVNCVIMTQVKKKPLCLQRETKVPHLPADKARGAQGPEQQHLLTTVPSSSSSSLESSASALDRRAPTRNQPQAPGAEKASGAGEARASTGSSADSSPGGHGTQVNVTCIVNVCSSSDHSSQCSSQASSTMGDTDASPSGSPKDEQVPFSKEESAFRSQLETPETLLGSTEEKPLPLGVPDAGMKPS
The experiment can be described thus: flow cytometry on HEK293T cells stably overexpressing cynomolgus TNFR2.

Another experiment concerns the target T3, human TNFR1 (Homo sapiens, UniProt P19438 30-455).
T3 construct: Stably overexpressed on CHO-K1 cells; also called TNFRSF1A; p55
T3 sequence: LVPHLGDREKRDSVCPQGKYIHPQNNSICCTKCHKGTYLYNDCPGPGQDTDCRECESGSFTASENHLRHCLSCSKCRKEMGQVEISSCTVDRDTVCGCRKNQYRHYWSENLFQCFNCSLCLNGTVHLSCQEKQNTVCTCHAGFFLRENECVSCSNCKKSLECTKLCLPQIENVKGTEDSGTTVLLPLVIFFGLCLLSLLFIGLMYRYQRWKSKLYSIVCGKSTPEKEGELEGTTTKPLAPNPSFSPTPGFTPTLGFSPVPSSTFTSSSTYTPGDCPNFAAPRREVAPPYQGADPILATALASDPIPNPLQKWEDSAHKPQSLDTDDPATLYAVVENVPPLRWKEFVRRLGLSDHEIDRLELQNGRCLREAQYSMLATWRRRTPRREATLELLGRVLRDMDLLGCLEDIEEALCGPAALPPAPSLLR
Nature of the experiment: flow cytometry on CHO-K1 cells stably overexpressing human TNFR1.

Another experiment concerns the target T4, murine TNFR2 (Mus musculus, UniProt P25119 23-474).
T4 construct: Stably overexpressed on HEK293T cells; also called mouse TNFR2
T4 sequence: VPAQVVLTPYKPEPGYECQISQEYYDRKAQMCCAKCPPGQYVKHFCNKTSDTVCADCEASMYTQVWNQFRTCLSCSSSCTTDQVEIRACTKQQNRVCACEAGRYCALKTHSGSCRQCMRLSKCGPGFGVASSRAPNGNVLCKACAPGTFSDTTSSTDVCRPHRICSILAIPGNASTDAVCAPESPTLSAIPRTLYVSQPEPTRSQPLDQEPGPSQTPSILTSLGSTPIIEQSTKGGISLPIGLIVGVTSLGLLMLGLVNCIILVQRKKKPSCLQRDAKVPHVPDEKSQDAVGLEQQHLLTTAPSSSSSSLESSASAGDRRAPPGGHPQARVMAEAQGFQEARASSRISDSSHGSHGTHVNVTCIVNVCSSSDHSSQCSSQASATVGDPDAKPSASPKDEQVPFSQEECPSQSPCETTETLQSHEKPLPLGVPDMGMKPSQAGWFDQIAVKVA
The experiment can be described thus: flow cytometry on HEK293T cells stably overexpressing murine TNFR2.

Experiment [2] concerns the target T1, human TNFR2. Nature of the experiment: binding to cells stably overexpressing human TNFR2, serial dilutions, flow cytometry or imaging.
Protocol: as §1
The target in experiment [3] is T1, human TNFR2. Nature of the experiment: image binding assay on adherent HEK293T cells overexpressing human TNFR2 (384-well plate).
Protocol: as §1

Protocol for cynomolgus TNFR2: (§2) HEK293T cells stably overexpressing human TNFR2, cynomolgus TNFR2, or murine TNFR2 were aliquoted in FACS buffer and incubated with serial dilutions of TNFR2 antibody for 2 hours.
(§3) The concentration-response was fitted to a four-parameter logistic non-linear regression model in the GraphPad Prism software to obtain the EC₅₀ values.
Protocol for human TNFR1: as §1
Protocol for murine TNFR2: as §2, §3

B1: R2_mAb-1 (antibody, V domains shown)
VH: QVQLVESGGGVVQPGRSLRLSCAASGFTFSSYGMHWVRQAPGKGLEWVAVIWFDEDNKDYADSVKGRFTISRDNSKNTLYLQMSSLRAEDTAVYYCARDNDILTGYYYYYGMDVWGQGTTVTVSS
VL: DIQLTQSPSFLSASVGDRVTITCRASQDISSYLAWYQQKPGKAPKLLIYAASTLQSGVPSRFSGSGSGTEFTLTISSLQPEDFATYYCQQLNSYPPTFGQGTKVEIK
notes: also called R2-1
Take B1: the “EC50 (read off the curve)” value with human TNFR2 [1] was ~100 pM. Also, the binding result is on record as “binds” with cynomolgus TNFR2, “no binding (tested: up to 10 µg/mL)” with human TNFR1 and “no binding (tested: up to 10 (unit cut off in the text))” in the experiment with murine TNFR2. Besides, the EC50 in the experiment with human TNFR2 [2] was determined as 100 pM.

B2: R2_mAb-2 (antibody, V domains shown)
VH: QVQLVQSGPEVKKPGASVKVSCKASGYTFTNYGISWVRQAPGQGLEWMGWINAYNGNTNYAQKLQGRVTMTTDTSTSTAYMELRSLRSDDTAVYYCARDGGYGSGTYHNDYYYYYGMDVWGQGTTVTVSS
VL: EIVLTQSPDFQSMTPEEKVTITCRASQSIGSNLHWYQQKPDQSPKLLIKFASQSISGVPSRFSGSGSGTDFTLTINSLEAEDAATYYCHQSSSLPFTFGPGTKVDIK
notes: also called R2-2
Regarding B2, in the experiment with human TNFR2 [1], the “EC50 (read off the curve)” value was ~300 pM. In addition, the binding result is listed as “binds” in the experiment with cynomolgus TNFR2, “no binding (tested: up to 10 µg/mL)” with human TNFR1 and “no binding (tested: up to 10 (unit cut off in the text))” with murine TNFR2. The molecule also displayed a 50% effective concentration (EC50) with human TNFR2 [2] of 350 pM.

B3: R2_mAb-3 (antibody, V domains shown)
VH: QVQLQESGPGLVKPSETLSLTCTVSGGSISSYYWSWIRQAPGKGLEWIGYIYYSGSTNYNPSLKSRVTISVDTSKNQFSLKLSSVTAADTAVYYCARDDGSSDYGMDVWGQGTTVTVSS
VL: AIQLTQSPSSLSASVGDRVTITCRASQGISSALAWYQQKPGKAPKLLIYDASSLESGVPSRFTGSGTDFTLTISSLQPEDFATYYCQQFNNYMYTFGQGTKLEIK
notes: also called R2-3
For the molecule B3, the “EC50 (read off the curve)” value with human TNFR2 [1] is ~400 pM. Moreover, the binding result is listed as “no binding (tested: up to 10 µg/mL)” in the experiment with human TNFR1 and “no binding (tested: up to 10 (unit cut off in the text))” in the experiment with murine TNFR2. In the experiment with human TNFR2 [2], this molecule came in with an EC50 of 380 pM.

B4: R2_mAb-5 (antibody, V domains shown)
VH: QVQLVQSGAEVKKPGASVTVSCKASGYTFSTYGIIWVRQAPGQGLEWMGWISAFNGNANSAQKLQDRVTMTTDTSTSTAYMELRSLRSDDTAVYYCARGEDFFDYWGQGTLVTVSS
VL: DIVMTQTPLSSPVTLGQPASISCRSSQSLVHSDGNTYLSWLQQRPGQPPRLLIYKVSSRFSGVPDRFSGSGAGTDFTLKISRVEAEDVGVYYCTQSTQFPFTFGRGTKLEIK
notes: also called R2-5
Consider B4, for which the “EC50 (read off the curve)” value with human TNFR2 [1] and in the experiment with human TNFR2 [3] was ~100 pM throughout. The results for the binding result in the experiment with cynomolgus TNFR2, with human TNFR1 and with murine TNFR2 were “binds”, “no binding (tested: up to 10 µg/mL)” and “no binding (tested: up to 10 (unit cut off in the text))”, respectively. This molecule showed a concentration giving a half-maximal response (EC50) in the experiment with human TNFR2 [2] of 100 pM.

B5: R2_mAb-6 (antibody, V domains shown)
VH: QVQLVQSGAEVKKPGASVKVSCKASGYTFLSYGLSWVRQAPGQGLEWMGWINAYNGNTNYAQNLQDRVTMTTDTSTSTAYMELRSLRSDDMAVYYCARWDILTAYYSSDAFDIWGQGTMVTVSS
VL: DIVMTQTPLSSPVTLGQPASISCRSSQSLVHSDGNTYLNWLQQRPGQPPRLLIYKVSNRFSGVPDRFSGSGAGTDFTLKISRVEAEDVGVYYCTQTTQFPITFGQGTRLEIK
notes: also called R2-6
Turning to B5, in the experiment with human TNFR2 [1], the “EC50 (read off the curve)” value is ~100 pM. For the same molecule, the results for the binding result with cynomolgus TNFR2, in the experiment with human TNFR1 and with murine TNFR2 were “binds”, “no binding (tested: up to 10 µg/mL)” and “no binding (tested: up to 10 (unit cut off in the text))”, respectively. The EC50 with human TNFR2 [2] stood at 140 pM.

B6: R2_mAb-4 (antibody, V domains shown)
VH: QVQLVQSGAEVRKPGASVKVSCKASGYTFTSYSVTWVRQAPGQGLEWMGWINAFSGNTHYAQNLQDRVTMTTDTSTSTAYMELRSLRSDDTAVYYCAREEGSGSYEDYYGMDVWGQGTTVTVSS
VL: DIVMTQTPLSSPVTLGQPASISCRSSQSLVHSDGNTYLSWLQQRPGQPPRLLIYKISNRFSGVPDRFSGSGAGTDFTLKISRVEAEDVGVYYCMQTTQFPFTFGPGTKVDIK
notes: also called R2-4
B6: the “EC50 (read off the curve)” value with human TNFR2 [1] was ~100 pM; with human TNFR2 [3] it was ~200 pM. Further, the results for the binding result with cynomolgus TNFR2, in the experiment with human TNFR1 and in the experiment with murine TNFR2 were “binds”, “no binding (tested: up to 10 µg/mL)” and “no binding (tested: up to 10 (unit cut off in the text))”, respectively. For the same molecule, in the experiment with human TNFR2 [2], the response was half-maximal at 110 pM (EC50).
